Source: patent publication US10781452B2, “FLT3 receptor antagonists for the treatment or the prevention of pain disorders” (INSTITUT NATIONAL DE LA SANTE ET DE LA RECHERCHE MEDICALE …, priority 2010, dated 2020)

Target: T1, FLT3 (Mus musculus, UniProt Q00342)
T1 construct: from tissue; host or cells: living mice (sensory neurons / DRG)
T1 sequence (Q00342 28-1000): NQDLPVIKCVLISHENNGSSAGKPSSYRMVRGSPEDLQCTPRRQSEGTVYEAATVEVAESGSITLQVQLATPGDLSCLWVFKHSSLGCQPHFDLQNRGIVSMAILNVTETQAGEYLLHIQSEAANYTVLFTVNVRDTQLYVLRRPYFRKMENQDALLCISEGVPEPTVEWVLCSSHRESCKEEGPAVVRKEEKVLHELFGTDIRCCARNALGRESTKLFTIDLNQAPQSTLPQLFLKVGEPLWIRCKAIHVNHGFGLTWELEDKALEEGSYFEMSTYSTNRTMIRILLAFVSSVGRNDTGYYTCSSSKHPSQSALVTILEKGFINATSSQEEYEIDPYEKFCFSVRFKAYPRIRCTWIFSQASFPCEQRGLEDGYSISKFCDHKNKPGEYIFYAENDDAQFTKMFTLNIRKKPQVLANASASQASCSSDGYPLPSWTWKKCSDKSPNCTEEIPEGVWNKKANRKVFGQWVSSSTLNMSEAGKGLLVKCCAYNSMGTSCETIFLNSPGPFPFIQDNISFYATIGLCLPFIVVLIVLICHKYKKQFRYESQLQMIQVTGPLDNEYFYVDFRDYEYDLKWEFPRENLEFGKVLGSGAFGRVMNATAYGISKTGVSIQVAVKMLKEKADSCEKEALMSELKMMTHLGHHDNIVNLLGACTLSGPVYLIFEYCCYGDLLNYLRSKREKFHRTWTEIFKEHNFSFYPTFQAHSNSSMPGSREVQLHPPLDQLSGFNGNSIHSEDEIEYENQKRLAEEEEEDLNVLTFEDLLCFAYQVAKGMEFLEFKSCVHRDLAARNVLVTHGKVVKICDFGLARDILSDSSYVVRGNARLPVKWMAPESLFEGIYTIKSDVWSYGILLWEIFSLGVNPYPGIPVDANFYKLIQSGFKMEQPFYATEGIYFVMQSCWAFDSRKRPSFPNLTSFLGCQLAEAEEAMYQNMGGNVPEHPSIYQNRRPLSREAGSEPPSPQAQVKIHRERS
Test: Chronic Constriction Injury (CCI) mouse model, mechanical hypersensitivity (0.6 g von Frey filament)
Type: in vivo
Method: The efficacy of the antibody A3 to reverse neuropathic pain was assessed in the Chronic Constriction Injury (CCI) mouse model of persistent peripheral neuropathic pain, consisting in three chronic ligatures tied loosely around the sciatic nerve (Bennett, G. J. & Xie, Y. K. A peripheral mononeuropathy in rat that produces disorders of pain sensation like those seen in man. Pain, 1988, 33:87-107). Neuropathic pain symptoms, such as mechanical hypersensitivity, develop within 10 days post-injury.
CCI model. The Chronic Constriction Injury (CCI) model was adapted for mice (Costa, B., Comelli, F., Bettoni, I., Colleoni, M. & Giagnoni, G. The endogenous fatty acid amide, palmitoylethanolamide, has anti-allodynic and anti-hyperalgesic effects in a murine model of neuropathic pain: involvement of CB(1), TRPV1 and PPARgamma receptors and neurotrophic factors. Pain, 2008, 139:541-550). Briefly, skin was incised and the sciatic nerve was exposed unilaterally at the […] by dissecting through the biceps femoris. […]
Mechanical nociception assay. […] The procedure was applied 10 times and the percentage of positive responses was calculated.
Data and statistical analyses. Data are expressed as the mean ±S.E.M. Statistical significance was determined by two-way analysis of variance (ANOVA) for repeated measures, over time. […]

B1: A3 antibody: human monoclonal antibody against FLT3; VH SEQ ID NO:1, VL SEQ ID NO:2 (antibody, V domains shown)
VH: EVQLVESGGSLVKPGGSLRLSCAASGFTFSNSYMNWVRQAPGKGLEWISDISGSSRDIDYADFVKGRFTISRDNATNSLYLQMNSLRAEDTAVYYCVRSGNSGMDVWGRGTLVTVSS
VL: QSVLTQPASVSGSPGQSITISCAGTSSDVGGGYYVSWYQQHPGKAPKLMIYYDSYRPSGVSNRFSGSKSGNTASLTISGLQAEDEADYYCSSYTNNSTRVFGGGTKLEIK
modifications: Synthetic VH domain of A3; Synthetic VL region of A3
B1 was tested, and the “mechanical sensitivity (percentage of withdrawal) after CCI injury” value (100 μg/animal intraperitoneal, 9 days after CCI, vs control irrelevant antibody) was “completely reduce mechanical sensitivity to the scores obtained before CCI injury” and the “duration of inhibition of CCI-induced pain hypersensitivity” value (single injection, 100 μg/animal) was 48 h.
